Results as given in US20260226158A1.

Target: human NKp46 on human NKp46-expressing CHO-K1 cells (human) (UniProt O76036)
Test: flow cytometry on human NKp46-expressing CHO-K1 cells, Alexa Fluor 647 anti-human IgG; upper row of the box

Chain of human NKp46 on human NKp46-expressing CHO-K1 cells (human) (O76036 22-304): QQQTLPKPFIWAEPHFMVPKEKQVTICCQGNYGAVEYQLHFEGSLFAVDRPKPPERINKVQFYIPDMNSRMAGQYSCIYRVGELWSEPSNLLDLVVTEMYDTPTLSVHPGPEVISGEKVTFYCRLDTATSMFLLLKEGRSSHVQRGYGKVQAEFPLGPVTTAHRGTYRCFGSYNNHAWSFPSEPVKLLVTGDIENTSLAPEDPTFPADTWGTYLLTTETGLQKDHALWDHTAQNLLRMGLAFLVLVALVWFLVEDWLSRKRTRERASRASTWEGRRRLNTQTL

Geometric Mean : Alexa Fluor 647-H: 206
Substance: Human IgG (antibody)
